Where two headings read alike, the source gives them in different places.
Key:
[1] = Stability in mouse serum at 37 °C (iTLC); assay type: in vitro ADME
Experimental: Stability in PBS was determined by incubating 20 µL of the labeled compounds (∼11 MBq) in PBS (80 µL) at 37 °C. Radiochemical purity was determined by iTLC at 30 min, 1 h, 2 h and 4 h. Stability in the serum was carried out by adding 70 µL of the labeled compound (∼35 MBq) to 330 µL of mouse serum (Merck, Haarlerbergweg, The Netherlands). The mixture was incubated at 37 °C. At different time points (30 min, 1 h, 2 h and 4 h), an aliquot of the mixture (50 µL) was added to 50 µL ACN. The vial was vortexed and centrifuged at 10,000 rpm for 20 min and the supernatant was analyzed by iTLC.

[2] = In vivo SPECT/CT imaging, VOI quantification; conditions: male, Balb/c nu/nu, mouse, tumor and kidneys (in vivo VOIs), iv, total radioactivity; from SPECT VOI %IA/mL, 2 h p.i., i.v., non-blocked, n = 3; read-out: Tumor-to-kidney ratio (SPECT)
Experimental: Seven-week-old male Balb/c nu/nu-specific and opportunistic pathogen-free (SOPF) mice (Janvier Labs, Le Genest-Saint-Isle, France) were housed in individually ventilated cages, with 4 mice per cage. Upon arrival, mice were acclimated for 1 week, with access to food and water ad libitum. […]
Mice (n = 3 per probe) were intravenously injected in the tail vein with 200 µL of Kolliphor® HS 15 (Merck, Haarlerbergweg, The Netherlands) in PBS (0.06 mg/mL) containing [^111In]In-12 (13.40 ± 0.76 MBq, ~670 pmol) or [^111In]In-15 (17.50 ± 1.78 MBq, ~875 pmol). […] The CT and registered, attenuation-corrected SPECT images were analyzed using PMOD (PMOD 3.9, Zurich, Switzerland) and quantification was performed by placing volumes of interest (VOIs) around the tumors and kidneys. An Eppendorf tube filled with a solution of indium-111 of a known activity was measured to determine the calibration factor. The total activity measured in the VOI was divided by the volume of all VOI pixel values and multiplied by the calibration factor to obtain the percentage of injected activity per volume unit (%IA/mL).

[3] = Ex vivo biodistribution after SPECT/CT scanning; assay type: in vivo, mouse; conditions: mouse, iv, ~3 h p.i.; for tissue to tissue ratio: male, Balb/c nu/nu, total radioactivity, radioactivity; for tissue uptake at 3 h: PC-3 xenograft mice, i.v.
Experimental: Seven-week-old male Balb/c nu/nu-specific and opportunistic pathogen-free (SOPF) mice (Janvier Labs, Le Genest-Saint-Isle, France) were housed in individually ventilated cages, with 4 mice per cage. Upon arrival, mice were acclimated for 1 week, with access to food and water ad libitum. Mice were subcutaneously inoculated on the right shoulder with PC-3 cells (5 × 10^6 cells suspended in 100 µL of 1/3 Matrigel (Corning Inc., Corning, NY, USA) and 2/3 Hank’s balanced salt solution (Gibco). PC-3 xenografts were allowed to grow for 3 weeks. Tumor sizes were 391 ± 173 mm^3 at the start of the studies. All animal experiments were approved by the Animal Welfare Committee of the Erasmus MC and were conducted in agreement with institutional guidelines (license number: AVD101002017867, 28 September 2017).
To determine the biodistribution of the compounds after imaging (~3 h p.i.), blood was collected via cardiac puncture under isoflurane/O2 anesthesia, after which the mice were sacrificed. The tumor and organs of interest (prostate, pancreas, spleen, liver, GI tract (stomach, small intestine, cecum, large intestine), kidneys, lungs, heart, muscle, bone, and brain) were excised, washed in PBS and blotted dry. The stomach, intestines and cecum were emptied of their contents. The tumor was cut in half; one half was fresh-frozen for further analysis and the other half was collected for ex vivo optical imaging and radioactivity measurements. After imaging, the blood, tumor, and relevant organs were weighed and measured in a γ-counter. To determine the total injected radioactivity per animal, samples of the injected solutions were measured as well. The percentage of injected dose per gram (%ID/g) was determined for each tissue sample and corrected for both the injected volume and %ID present at the injection site (the tail). Because the low weight of the prostate limited accurate organ weight measurements, the average prostate weight of all animals was used.

**Q.** For `CC(C)CC(CC(C)C)NC(=O)[C@H](Cc1c[nH]cn1)NC(=O)CNC(=O)[C@@H](NC(=O)[C@H](C)NC(=O)[C@H](Cc1c[nH]c2ccccc12)NC(=O)[C@H](CCC(N)=O)NC(=O)[C@@H](Cc1ccccc1)NC(=O)COCC(=O)Nc1ccc(CNC(=O)[C@H](CCCCNC(=O)CCOCCOCCOCCOCCNC(=O)OC2CCCC3C=NN=C(c4ccc(CNC(=O)CCCCC[N+]5=C(/C=C/C=C/C=C6N(C)c7ccc(S(=O)(=O)O)cc7C6(C)C)C(C)(C)c6cc(S(=O)(=O)[O-])ccc65)cc4)C3CC2)NC(=O)CN2CCN(CC(=O)O)CCN(CC(=O)O)CCN(CC(=O)O)CC2)cc1)C(C)C` (some centres unmarked) [[^111In]In-12, metal not drawn], which “Stability in Mouse Serum (%) 30 min” value ([1]; intact labeled ligand after incubation at 37 °C in mouse serum, 30 min, n = 1) is on record?
**A.** The value was 96.3%.

**Q.** And the “Stability in Mouse Serum (%) 1 h” value ([1]; intact labeled ligand after incubation at 37 °C in mouse serum, 1 h, n = 1)?
**A.** The value was 96.4%.

**Q.** What about the “Stability in Mouse Serum (%) 2 h” value ([1]; intact labeled ligand after incubation at 37 °C in mouse serum, 2 h, n = 1) of the same molecule?
**A.** The value was 96.5%.

**Q.** What about the “Stability in Mouse Serum (%) 4 h” value ([1]; intact labeled ligand after incubation at 37 °C in mouse serum, 4 h, n = 1) of the same molecule?
**A.** Its value is 96.5%.

**Q.** And the “Protein-Bound Fraction at 4 h (%)” value ([1]; mouse serum, 4 h)?
**A.** Its value is 7.0%.

**Q.** What about the tissue to tissue ratio at 2 h [2] of the same molecule?
**A.** The tissue to tissue ratio at 2 h was 0.47 ± 0.05.

**Q.** What about the tissue to tissue ratio ([3]; tumor and blood, non-blocked, n = 3, read-out: Tumor-to-blood ratio) of the same molecule?
**A.** Its tissue to tissue ratio is 1.09 ± 0.15.

**Q.** And the tissue to tissue ratio ([3]; tumor and kidney, blocked with 150 nmol unlabeled NeoB, n = 1, read-out: Tumor-to-kidney ratio)?
**A.** Its tissue to tissue ratio is 0.16.

**Q.** And the tissue to tissue ratio ([3]; tumor and kidney, non-blocked, n = 3, read-out: Tumor-to-kidney ratio)?
**A.** Its tissue to tissue ratio is 0.34 ± 0.05.

**Q.** And the tissue to tissue ratio ([3]; tumor and liver, blocked with 150 nmol unlabeled NeoB, n = 1, read-out: Tumor-to-liver ratio)?
**A.** Its tissue to tissue ratio is 0.14.

**Q.** What about the tissue to tissue ratio ([3]; tumor and liver, non-blocked, n = 3, read-out: Tumor-to-liver ratio) of the same molecule?
**A.** Its tissue to tissue ratio is 0.55 ± 0.04.

**Q.** And the tissue to tissue ratio ([3]; tumor and muscle, blocked with 150 nmol unlabeled NeoB, n = 1, read-out: Tumor-to-muscle ratio)?
**A.** The tissue to tissue ratio was 2.62.

**Q.** What about the tissue to tissue ratio ([3]; tumor and muscle, non-blocked, n = 3, read-out: Tumor-to-muscle ratio) of the same molecule?
**A.** The tissue to tissue ratio was 9.04 ± 1.74.

**Q.** What about the tissue to tissue ratio ([3]; tumor and pancreas, blocked with 150 nmol unlabeled NeoB, n = 1, read-out: Tumor-to-pancreas ratio) of the same molecule?
**A.** Its tissue to tissue ratio is 2.16.

**Q.** And the tissue to tissue ratio ([3]; tumor and pancreas, non-blocked, n = 3, read-out: Tumor-to-pancreas ratio)?
**A.** Its tissue to tissue ratio is 0.51 ± 0.03.

**Q.** And the tissue uptake at 3 h ([3]; blood, blocked with 150 nmol unlabeled NeoB, n = 1, read-out: Blood uptake)?
**A.** The tissue uptake at 3 h was 7.31 %ID/g.

**Q.** And the tissue uptake at 3 h ([3]; blood, non-blocked, n = 3, read-out: Blood uptake)?
**A.** The tissue uptake at 3 h was 7.83 ± 0.84 %ID/g.

**Q.** What about the tissue uptake at 3 h ([3]; bone, blocked with 150 nmol unlabeled NeoB, n = 1, read-out: Bone uptake) of the same molecule?
**A.** The tissue uptake at 3 h was 1.87 %ID/g.

**Q.** What about the tissue uptake at 3 h ([3]; bone, non-blocked, n = 3, read-out: Bone uptake) of the same molecule?
**A.** Its tissue uptake at 3 h is 2.03 ± 0.89 %ID/g.

**Q.** What about the tissue uptake at 3 h ([3]; brain, blocked with 150 nmol unlabeled NeoB, n = 1, read-out: Brain uptake) of the same molecule?
**A.** Its tissue uptake at 3 h is 0.2 %ID/g.

**Q.** And the tissue uptake at 3 h ([3]; brain, non-blocked, n = 3, read-out: Brain uptake)?
**A.** The tissue uptake at 3 h was 0.2 ± 0.03 %ID/g.

**Q.** What about the tissue uptake at 3 h ([3]; cecum, blocked with 150 nmol unlabeled NeoB, n = 1, read-out: Cecum uptake) of the same molecule?
**A.** The tissue uptake at 3 h was 2.35 %ID/g.

**Q.** What about the tissue uptake at 3 h ([3]; cecum, non-blocked, n = 3, read-out: Cecum uptake) of the same molecule?
**A.** Its tissue uptake at 3 h is 3.73 ± 0.4 %ID/g.

**Q.** And the tissue uptake at 3 h ([3]; heart, blocked with 150 nmol unlabeled NeoB, n = 1, read-out: Heart uptake)?
**A.** Its tissue uptake at 3 h is 2.24 %ID/g.

**Q.** What about the tissue uptake at 3 h ([3]; heart, non-blocked, n = 3, read-out: Heart uptake) of the same molecule?
**A.** Its tissue uptake at 3 h is 2.39 ± 0.23 %ID/g.

**Q.** And the tissue uptake at 3 h ([3]; kidneys, blocked with 150 nmol unlabeled NeoB, n = 1, read-out: Kidneys uptake)?
**A.** Its tissue uptake at 3 h is 17.1 %ID/g.

**Q.** And the tissue uptake at 3 h ([3]; kidneys, non-blocked, n = 3, read-out: Kidneys uptake)?
**A.** Its tissue uptake at 3 h is 24.9 ± 2.78 %ID/g.

**Q.** What about the tissue uptake at 3 h ([3]; large intestine, blocked with 150 nmol unlabeled NeoB, n = 1, read-out: Large intestine uptake) of the same molecule?
**A.** Its tissue uptake at 3 h is 2.06 %ID/g.

**Q.** And the tissue uptake at 3 h ([3]; large intestine, non-blocked, n = 3, read-out: Large intestine uptake)?
**A.** Its tissue uptake at 3 h is 3.88 ± 0.4 %ID/g.

**Q.** And the tissue uptake at 3 h ([3]; liver, blocked with 150 nmol unlabeled NeoB, n = 1, read-out: Liver uptake)?
**A.** The tissue uptake at 3 h was 20 %ID/g.

**Q.** What about the tissue uptake at 3 h ([3]; liver, non-blocked, n = 3, read-out: Liver uptake) of the same molecule?
**A.** The tissue uptake at 3 h was 15.3 ± 0.43 %ID/g.

**Q.** And the tissue uptake at 3 h ([3]; lungs, blocked with 150 nmol unlabeled NeoB, n = 1, read-out: Lungs uptake)?
**A.** The tissue uptake at 3 h was 16.1 %ID/g.

**Q.** What about the tissue uptake at 3 h ([3]; lungs, non-blocked, n = 3, read-out: Lungs uptake) of the same molecule?
**A.** Its tissue uptake at 3 h is 6.51 ± 1.15 %ID/g.

**Q.** What about the tissue uptake at 3 h ([3]; muscle, blocked with 150 nmol unlabeled NeoB, n = 1, read-out: Muscle uptake) of the same molecule?
**A.** Its tissue uptake at 3 h is 1.04 %ID/g.

**Q.** And the tissue uptake at 3 h ([3]; muscle, non-blocked, n = 3, read-out: Muscle uptake)?
**A.** Its tissue uptake at 3 h is 0.96 ± 0.16 %ID/g.

**Q.** And the tissue uptake at 3 h ([3]; pancreas, blocked with 150 nmol unlabeled NeoB, n = 1, read-out: Pancreas uptake)?
**A.** The tissue uptake at 3 h was 1.26 %ID/g.

**Q.** What about the tissue uptake at 3 h ([3]; pancreas, non-blocked, n = 3, read-out: Pancreas uptake) of the same molecule?
**A.** Its tissue uptake at 3 h is 16.6 ± 1.41 %ID/g.

**Q.** What about the tissue uptake at 3 h ([3]; prostate, blocked with 150 nmol unlabeled NeoB, n = 1, read-out: Prostate uptake) of the same molecule?
**A.** Its tissue uptake at 3 h is 4.36 %ID/g.

**Q.** What about the tissue uptake at 3 h ([3]; prostate, non-blocked, n = 3, read-out: Prostate uptake) of the same molecule?
**A.** Its tissue uptake at 3 h is 3.56 ± 1.62 %ID/g.

**Q.** What about the tissue uptake at 3 h ([3]; small intestine, blocked with 150 nmol unlabeled NeoB, n = 1, read-out: Small intestine uptake) of the same molecule?
**A.** Its tissue uptake at 3 h is 1.45 %ID/g.

**Q.** And the tissue uptake at 3 h ([3]; small intestine, non-blocked, n = 3, read-out: Small intestine uptake)?
**A.** The tissue uptake at 3 h was 4.4 ± 2.45 %ID/g.

**Q.** And the tissue uptake at 3 h ([3]; spleen, blocked with 150 nmol unlabeled NeoB, n = 1, read-out: Spleen uptake)?
**A.** Its tissue uptake at 3 h is 3.32 %ID/g.

**Q.** And the tissue uptake at 3 h ([3]; spleen, non-blocked, n = 3, read-out: Spleen uptake)?
**A.** The tissue uptake at 3 h was 4.11 ± 0.94 %ID/g.

**Q.** What about the tissue uptake at 3 h ([3]; stomach, blocked with 150 nmol unlabeled NeoB, n = 1, read-out: Stomach uptake) of the same molecule?
**A.** The tissue uptake at 3 h was 3.12 %ID/g.

**Q.** What about the tissue uptake at 3 h ([3]; stomach, non-blocked, n = 3, read-out: Stomach uptake) of the same molecule?
**A.** The tissue uptake at 3 h was 3.22 ± 0.54 %ID/g.

**Q.** And the tissue uptake at 3 h ([3]; tumor, blocked with 150 nmol unlabeled NeoB, n = 1, read-out: Tumor uptake)?
**A.** Its tissue uptake at 3 h is 2.72 %ID/g.

**Q.** What about the tissue uptake at 3 h ([3]; tumor, non-blocked, n = 3, read-out: Tumor uptake) of the same molecule?
**A.** The tissue uptake at 3 h was 8.47 ± 0.46 %ID/g.

Source: paper PMC8778164, “Towards Complete Tumor Resection: Novel Dual-Modality Probes for Improved Image-Guided Surgery of GRPR-Expressing Prostate Cancer” (Pharmaceutics, 2022)
